The record followed here is article PMC10307831, “GATA zinc finger protein p66β promotes breast cancer cell migration by acting as a co-activator of Snail”.

Data set [1] addresses T1, Flag-p66β (UniProt Q8WXI9 1-593). Briefly: pull-down; p66β alone; relatively high affinity; EMSA: 10 mM Tris pH 7.5, 50 mM KCl, 1 mM DTT, 5 mM MgCl2, 2.5% glycerol, 0.05% NP-40, 50 ng/ul poly(dI.dC), 600 fmol probe, 12 ug GST protein in 20 ul; gel 6% 0.5x TBE 4 C. Pull-down: NeutrAvidin beads, 8 h 4 C, washed in IP buffer (50 mM Tris pH 7.5, 150 mM NaCl, 1% Triton X-100). As to conditions: protein: recombinant; tags: Flag; label: biotin (probe); blunt.

The target of data set [2] is T2, GST-Snail (UniProt O95863 1-264). Briefly: EMSA; 5 mM Mg2+, poly(dI.dC); EMSA: 10 mM Tris pH 7.5, 50 mM KCl, 1 mM DTT, 5 mM MgCl2, 2.5% glycerol, 0.05% NP-40, 50 ng/ul poly(dI.dC), 600 fmol probe, 12 ug GST protein in 20 ul; gel 6% 0.5x TBE 4 C. Pull-down: NeutrAvidin beads, 8 h 4 C, washed in IP buffer (50 mM Tris pH 7.5, 150 mM NaCl, 1% Triton X-100). The note with it: protein: recombinant; tags: N-terminal GST (pGEX-4T-1); label: biotin (probe); blunt. (In EMSA bound probe runs differently from free probe, usually more slowly.)
T2 sequence (O95863 whole entry): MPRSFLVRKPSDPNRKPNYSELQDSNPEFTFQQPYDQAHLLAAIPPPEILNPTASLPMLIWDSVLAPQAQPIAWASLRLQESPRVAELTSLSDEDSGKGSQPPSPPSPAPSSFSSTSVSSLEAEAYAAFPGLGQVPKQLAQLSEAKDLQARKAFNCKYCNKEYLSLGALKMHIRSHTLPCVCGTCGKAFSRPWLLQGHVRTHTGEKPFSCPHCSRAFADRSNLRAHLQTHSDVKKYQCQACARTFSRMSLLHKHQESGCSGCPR

The target of data set [3] is T1, Flag-p66β. Kind of data set: competition; unlabeled mutant vs biotinylated WT probe; EMSA: 10 mM Tris pH 7.5, 50 mM KCl, 1 mM DTT, 5 mM MgCl2, 2.5% glycerol, 0.05% NP-40, 50 ng/ul poly(dI.dC), 600 fmol probe, 12 ug GST protein in 20 ul; gel 6% 0.5x TBE 4 C. Pull-down: NeutrAvidin beads, 8 h 4 C, washed in IP buffer (50 mM Tris pH 7.5, 150 mM NaCl, 1% Triton X-100). The note with it: protein: recombinant; tags: Flag; 3' overhang 1 nt on strand 1 as printed (reverse strand lacks 5' C).

The target of data set [4] is T2, GST-Snail. The data set is described as above. As to conditions: protein: recombinant; tags: N-terminal GST (pGEX-4T-1); 3' overhang 1 nt on strand 1 as printed (reverse strand lacks 5' C).

T1 sequence (Q8WXI9 whole entry): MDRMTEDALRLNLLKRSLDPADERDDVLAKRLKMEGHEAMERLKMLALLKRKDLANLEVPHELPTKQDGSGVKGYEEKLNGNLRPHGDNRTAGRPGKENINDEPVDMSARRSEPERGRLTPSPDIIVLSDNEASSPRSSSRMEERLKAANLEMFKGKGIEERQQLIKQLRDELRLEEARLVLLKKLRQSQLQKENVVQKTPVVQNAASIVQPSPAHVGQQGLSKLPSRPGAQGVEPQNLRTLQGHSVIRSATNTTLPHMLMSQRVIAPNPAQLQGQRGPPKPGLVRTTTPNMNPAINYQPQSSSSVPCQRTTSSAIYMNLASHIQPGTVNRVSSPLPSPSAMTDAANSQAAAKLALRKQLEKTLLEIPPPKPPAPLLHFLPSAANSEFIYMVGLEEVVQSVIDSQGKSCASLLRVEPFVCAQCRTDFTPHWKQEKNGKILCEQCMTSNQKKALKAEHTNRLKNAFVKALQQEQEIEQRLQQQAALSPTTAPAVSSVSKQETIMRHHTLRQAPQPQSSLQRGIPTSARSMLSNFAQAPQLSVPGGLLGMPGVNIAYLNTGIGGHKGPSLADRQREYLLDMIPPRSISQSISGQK

B1: COL6A2-G-box-WT (dsDNA)
DNA 1: GGCCCCCTCCTCCCATCCGCG
DNA 2: CGCGGATGGGAGGAGGGGGCC
In the case of B1, the binding result with Flag-p66β [1] and in the data set with GST-Snail [2] was “binds” each time.

B2: COL6A2-G-box-MT (dsDNA)
DNA 1: GGCCCCCTAATAATATCCGCG
DNA 2: GCGGATATTATTAGGGGGCC
As for B2, the binding result in the data set with Flag-p66β [3] and with GST-Snail [4] was “no binding” throughout.
